# Test results taken from paper PMC9943875, “Agonist-controlled competition of RAR and VDR nuclear receptors for heterodimerization with RXR is manifested in their DNA binding” (The Journal of Biological Chemistry, 2023).
# T1: mCherry-RXR (retinoid X receptor alpha, N-terminally tagged with mCherry) (UniProt P19793 1-462)
# T1 sequence (looked up): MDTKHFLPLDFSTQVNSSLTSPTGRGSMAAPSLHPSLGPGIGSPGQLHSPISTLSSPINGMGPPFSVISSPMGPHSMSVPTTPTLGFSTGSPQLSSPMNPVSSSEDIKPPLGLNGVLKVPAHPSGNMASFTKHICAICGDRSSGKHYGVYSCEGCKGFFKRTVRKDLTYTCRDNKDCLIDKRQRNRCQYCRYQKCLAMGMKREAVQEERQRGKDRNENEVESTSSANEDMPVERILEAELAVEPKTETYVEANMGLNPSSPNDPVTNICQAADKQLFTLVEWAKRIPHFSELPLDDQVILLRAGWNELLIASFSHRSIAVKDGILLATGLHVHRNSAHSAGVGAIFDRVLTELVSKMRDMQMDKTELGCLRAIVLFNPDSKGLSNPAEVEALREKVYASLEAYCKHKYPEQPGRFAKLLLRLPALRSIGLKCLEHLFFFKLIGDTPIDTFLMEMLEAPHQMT
# B1: EGFP-RAR (retinoic acid receptor alpha, N-terminally tagged with EGFP) (receptor)
# chain: MASNSSSCPTPGGGHLNGYPVPPYAFFFPPMLGGLSPPGALTTLQHQLPVSGYSTPSPATIETQSSSSEEIVPSPPSPPPLPRIYKPCFVCQDKSSGYHYGVSACEGCKGFFRRSIQKNMVYTCHRDKNCIINKVTRNRCQYCRLQKCFEVGMSKESVRNDRNKKKKEVPKPECSESYTLTPEVGELIEKVRKAHQETFPALCQLGKYTTNNSSEQRVSLDIDLWDKFSELSTKCIIKTVEFAKQLPGFTTLTIADQITLLKAACLDILILRICTRYTPEQDTMTFSDGLTLNRTQMHNAGFGPLTDLVFAFANQLLPLEMDDAETGLLSAICLICGDRQDLEQPDRVDMLQEPLLEALKVYVRKRRPSRPHMFPKMLMKITDLRSISAKGAERVITLKMEIPGSMPPLIQEMLENSEGLDTLSGQPGGGGRDGGGLAPPPGSCSPSLSPSSNRSSPATHSP
# B2: EGFP-VDR (vitamin D receptor, N-terminally tagged with EGFP) (receptor, UniProt P11473 1-427, looked up)
# chain: MEAMAASTSLPDPGDFDRNVPRICGVCGDRATGFHFNAMTCEGCKGFFRRSMKRKALFTCPFNGDCRITKDNRRHCQACRLKRCVDIGMMKEFILTDEEVQRKREMILKRKEEEALKDSLRPKLSEEQQRIIAILLDAHHKTYDPTYSDFCQFRPPVRVNDGGGSHPSRPNSRHTPSFSGDSSSSCSDHCITSSDMMDSSSFSNLDLSEEDSDDPSVTLELSQLSMLPHLADLVSYSIQKVIGFAKMIPGFRDLTSEDQIVLLKSSAIEVIMLRSNESFTMDDMSWTCGNQDYKYRVSDVTKAGHSLELIEPLIKFQVGLKKLNLHEEEHVLLMAICIVSPDRPGVQDAALIEAIQDRLSNTLQTYIRCRHPPPGSHLLYAKMIQKLADLRSLNEEHSKQYRCLSFQPECSMKLTPLVLEVFGNEIS
# Legend:
# [1] = target: mCherry-RXR (retinoid X receptor alpha, N-terminally tagged with mCherry) (UniProt P19793)
# [2] = target: T1, mCherry-RXR (retinoid X receptor alpha, …); assay: cell-based or functional assay
# [3] = target: TagBFP-RXR (retinoid X receptor alpha tagged with TagBFP) (UniProt P19793)
binder,measurement,setting,value
B1,"slow (DNA-bound) fraction ρ2 of EGFP-RAR by FCS in live HEK293 cells cotransfected with mCherry-RXR, no ligand (∼22% for EGFP-RAR alone)",[1],0.38
B2,"slow (DNA-bound) fraction ρ2 of EGFP-VDR by FCS in live HEK293 cells, mCherry-RXR coexpressed and 100 nM calcitriol added together",[2],2 fold
same,"slow fraction ρ2 of EGFP-RAR by FCS in triple-transfected cells (EGFP-RAR, mCherry-VDR, TagBFP-RXR), no ligand, against ρ2 ∼ 0.38 in cells with RAR and RXR only",[3],0.32
